Source: patent publication US20150344570A1 (published 2015)

B1: GpH7-A5/GpH7-B3 variant S267_10E/GpL16-k0 (antibody, human IgG1, kappa)
heavy 1: not shown
heavy 2: not shown
light: DIVMTQSPLSLPVTPGEPASISCQASESLVHSNRNTYLHWYLQKPGQSPQLLIYKVSNRFSGVPDRFSGSGSGTDFTLKISRVEAEDVGVYYCSQNTHVPPTFGQGTKVEIERTVAAPSVFIFPPSDEQLKSGTASVVCLLNNFYPREAKVQWKVDNALQSGNSQESVTEQDSKDSTYSLSSTLTLSKADYEKHKVYACEVTHQGLSSPVTKSFNRGEC
notes: Alteration in one H chain only; also called He Ab S267_10E
B2: GpH7-A5/GpH7-B3 variant K334_07I/GpL16-k0 (antibody, human IgG1, kappa)
heavy 1: not shown
heavy 2: not shown
light: B1 light
notes: Alteration in one H chain only; also called He Ab K334_07I
B3: GpH7-A5/GpH7-B3 variant S337_18N/GpL16-k0 (antibody, human IgG1, kappa)
heavy 1: not shown
heavy 2: not shown
light: B1 light
notes: Alteration in one H chain only; also called He Ab S337_18N
B4: GpH7-A5/GpH7-B3 variant I336_15Y/GpL16-k0 (antibody, human IgG1, kappa)
heavy 1: not shown
heavy 2: not shown
light: B1 light
notes: Alteration in one H chain only; also called He Ab I336_15Y
B5: GpH7-A5/GpH7-B3 variant P271_10E/GpL16-k0 (antibody, human IgG1, kappa)
heavy 1: not shown
heavy 2: not shown
light: B1 light
notes: Alteration in one H chain only; also called He Ab P271_10E
B6: GpH7-A5/GpH7-B3 variant S298_09D/GpL16-k0 (antibody, human IgG1, kappa)
heavy 1: not shown
heavy 2: not shown
light: B1 light
notes: Alteration in one H chain only; also called He Ab S298_09D
B7: GpH7-A5/GpH7-B3 variant S267_18N/GpL16-k0 (antibody, human IgG1, kappa)
heavy 1: not shown
heavy 2: not shown
light: B1 light
notes: Alteration in one H chain only; also called He Ab S267_18N
B8: GpH7-A5/GpH7-B3 variant S239_10E/GpL16-k0 (antibody, human IgG1, kappa)
heavy 1: not shown
heavy 2: not shown
light: B1 light
notes: Alteration in one H chain only; also called He Ab S239_10E
B9: GpH7-A5/GpH7-B3 variant S267_06M/GpL16-k0 (antibody, human IgG1, kappa)
heavy 1: not shown
heavy 2: not shown
light: B1 light
notes: Alteration in one H chain only; also called He Ab S267_06M
B10: GpH7-A5/GpH7-B3 variant T335_01G/GpL16-k0 (antibody, human IgG1, kappa)
heavy 1: not shown
heavy 2: not shown
light: B1 light
notes: Alteration in one H chain only; also called He Ab T335_01G
B11: GpH7-A5/GpH7-B3 variant S267_19Q/GpL16-k0 (antibody, human IgG1, kappa)
heavy 1: not shown
heavy 2: not shown
light: B1 light
notes: Alteration in one H chain only; also called He Ab S267_19Q
B12: GpH7-A5/GpH7-B3 variant S324_10E/GpL16-k0 (antibody, human IgG1, kappa)
heavy 1: not shown
heavy 2: not shown
light: B1 light
notes: Alteration in one H chain only; also called He Ab S324_10E
B13: GpH7-A5/GpH7-B3 variant K334_16H/GpL16-k0 (antibody, human IgG1, kappa)
heavy 1: not shown
heavy 2: not shown
light: B1 light
notes: Alteration in one H chain only; also called He Ab K334_16H
B14: GpH7-A5/GpH7-B3 variant K326_20W/GpL16-k0 (antibody, human IgG1, kappa)
heavy 1: not shown
heavy 2: not shown
light: B1 light
notes: Alteration in one H chain only; also called He Ab K326_20W
B15: GpH7-A5/GpH7-B3 variant K334_04F/GpL16-k0 (antibody, human IgG1, kappa)
heavy 1: not shown
heavy 2: not shown
light: B1 light
notes: Alteration in one H chain only; also called He Ab K334_04F
B16: GpH7-A5/GpH7-B3 variant Y296_08L/GpL16-k0 (antibody, human IgG1, kappa)
heavy 1: not shown
heavy 2: not shown
light: B1 light
notes: Alteration in one H chain only; also called He Ab Y296_08L
B17: GpH7-A5/GpH7-B3 variant K326_10E/GpL16-k0 (antibody, human IgG1, kappa)
heavy 1: not shown
heavy 2: not shown
light: B1 light
notes: Alteration in one H chain only; also called He Ab K326_10E
B18: GpH7-A5/GpH7-B3 variant K326_07I/GpL16-k0 (antibody, human IgG1, kappa)
heavy 1: not shown
heavy 2: not shown
light: B1 light
notes: Alteration in one H chain only; also called He Ab K326_07I
B19: GpH7-A5/GpH7-B3 variant P271_19Q/GpL16-k0 (antibody, human IgG1, kappa)
heavy 1: not shown
heavy 2: not shown
light: B1 light
notes: Alteration in one H chain only; also called He Ab P271_19Q
B20: GpH7-A5/GpH7-B3 variant S267_14T/GpL16-k0 (antibody, human IgG1, kappa)
heavy 1: not shown
heavy 2: not shown
light: B1 light
notes: Alteration in one H chain only; also called He Ab S267_14T
B21: GpH7-A5/GpH7-B3 variant Y296_03V/GpL16-k0 (antibody, human IgG1, kappa)
heavy 1: not shown
heavy 2: not shown
light: B1 light
notes: Alteration in one H chain only; also called He Ab Y296_03V
B22: GpH7-A5/GpH7-B3 variant K334_03V/GpL16-k0 (antibody, human IgG1, kappa)
heavy 1: not shown
heavy 2: not shown
light: B1 light
notes: Alteration in one H chain only; also called He Ab K334_03V
B23: GpH7-A5/GpH7-B3 variant Y296_02A/GpL16-k0 (antibody, human IgG1, kappa)
heavy 1: not shown
heavy 2: not shown
light: B1 light
notes: Alteration in one H chain only; also called He Ab Y296_02A
B24: GpH7-A5/GpH7-B3 variant K326_03V/GpL16-k0 (antibody, human IgG1, kappa)
heavy 1: not shown
heavy 2: not shown
light: B1 light
notes: Alteration in one H chain only; also called He Ab K326_03V
B25: GpH7-A5/GpH7-B3 variant K334_19Q/GpL16-k0 (antibody, human IgG1, kappa)
heavy 1: not shown
heavy 2: not shown
light: B1 light
notes: Alteration in one H chain only; also called He Ab K334_19Q
B26: GpH7-A5/GpH7-B3 variant K326_04F/GpL16-k0 (antibody, human IgG1, kappa)
heavy 1: not shown
heavy 2: not shown
light: B1 light
notes: Alteration in one H chain only; also called He Ab K326_04F
B27: GpH7-A5/GpH7-B3 variant T335_13S/GpL16-k0 (antibody, human IgG1, kappa)
heavy 1: not shown
heavy 2: not shown
light: B1 light
notes: Alteration in one H chain only; also called He Ab T335_13S
B28: GpH7-A5/GpH7-B3 variant L328_15Y/GpL16-k0 (antibody, human IgG1, kappa)
heavy 1: not shown
heavy 2: not shown
light: B1 light
notes: Alteration in one H chain only; also called He Ab L328_15Y
B29: GpH7-A5/GpH7-B3 variant T335_02A/GpL16-k0 (antibody, human IgG1, kappa)
heavy 1: not shown
heavy 2: not shown
light: B1 light
notes: Alteration in one H chain only; also called He Ab T335_02A
B30: GpH7-A5/GpH7-B3 variant S337_14T/GpL16-k0 (antibody, human IgG1, kappa)
heavy 1: not shown
heavy 2: not shown
light: B1 light
notes: Alteration in one H chain only; also called He Ab S337_14T

target: T1, FcγRIa (human, UniProt P12314 16-292); assay: SPR (Biacore), relative binding; control HeCon Ab GpH7-A5/GpH7-B3/GpL16-k0
T1 construct: extracellular domain; also called FcgRI; FcgRIa; not shown: His tag attached to the C terminus
T1 sequence (P12314 16-292): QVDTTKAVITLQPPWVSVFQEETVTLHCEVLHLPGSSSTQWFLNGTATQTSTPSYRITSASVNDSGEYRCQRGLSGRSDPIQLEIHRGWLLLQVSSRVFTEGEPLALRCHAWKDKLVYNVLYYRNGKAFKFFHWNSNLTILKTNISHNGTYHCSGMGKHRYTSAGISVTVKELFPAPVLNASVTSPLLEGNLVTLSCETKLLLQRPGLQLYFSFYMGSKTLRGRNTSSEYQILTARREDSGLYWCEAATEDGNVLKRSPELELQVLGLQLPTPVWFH

He/Con_1a | Binder
106 % of control (=100) | B1
104 % of control (=100) | B2
105 % of control (=100) | B3
103 % of control (=100) | B4
103 % of control (=100) | B5
106 % of control (=100) | B6
102 % of control (=100) | B7
105 % of control (=100) | B8
106 % of control (=100) | B9
104 % of control (=100) | B10
102 % of control (=100) | B11
105 % of control (=100) | B12
105 % of control (=100) | B13
103 % of control (=100) | B14
105 % of control (=100) | B15
104 % of control (=100) | B16
104 % of control (=100) | B17
101 % of control (=100) | B18
103 % of control (=100) | B19
102 % of control (=100) | B20
104 % of control (=100) | B21
105 % of control (=100) | B22
103 % of control (=100) | B23
102 % of control (=100) | B24
106 % of control (=100) | B25
102 % of control (=100) | B26
105 % of control (=100) | B27
102 % of control (=100) | B28
103 % of control (=100) | B29
105 % of control (=100) | B30
